Data as given in patent US20190367619A1 (ARGENX, published 2019).

Legend:
[1] = target: T1, human galectin-10-His (recombinant human galectin-10 with TEV-cleavable N-terminal His-tag) (human); test: BLI tandem on galectin-10-His; competitor: saturating 1D11 mIgG1 (10 ug/mL)
T1 construct: SEC-MALLS: dimer in solution; also called Gal10-His; humanGal10-His
T1 chain: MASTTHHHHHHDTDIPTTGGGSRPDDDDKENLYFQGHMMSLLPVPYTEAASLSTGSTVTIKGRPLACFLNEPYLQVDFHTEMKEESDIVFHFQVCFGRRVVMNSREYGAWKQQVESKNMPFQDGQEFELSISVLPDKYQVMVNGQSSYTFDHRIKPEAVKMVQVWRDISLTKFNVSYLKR
Summary of the method: (§1)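 Anti-His-captured galectin-10-His on BLI sensor tips was first loaded with an excess of the saturating antibody, then moved directly into the competitor antibody at a suboptimal concentration. Competitor binding was read as nm shift; no signal indicates a shared binding site.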

[2] = target: T1, human galectin-10-His (recombinant …); test: BLI tandem on galectin-10-His; isotype control as saturating antibody (10 ug/mL)
Summary of the method: as §1

[3] = target: T1, human galectin-10-His (recombinant …); test: BLI tandem on galectin-10-His; competitor: saturating 6A08 mIgG1 (10 ug/mL)
Summary of the method: as §1

[4] = target: T2, TEV-cleaved wild-type recombinant human galectin-10 (soluble, in Fab complexes, or as recombinant galectin-10 … (human, UniProt Q05315 1-142)); test: cell-based or functional assay
T2 sequence: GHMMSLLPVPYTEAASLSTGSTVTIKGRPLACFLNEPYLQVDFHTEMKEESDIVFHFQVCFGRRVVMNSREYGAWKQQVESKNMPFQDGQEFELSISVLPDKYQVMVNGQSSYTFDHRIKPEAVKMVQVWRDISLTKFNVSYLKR

[5] = target: T1, human galectin-10-His (recombinant …); test: SPR Biacore T3000, mouse IgG1 captured by anti-mouse Fc, galectin-10-His as analyte
Summary of the method: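 Polyclonal anti-mouse Fc on a CM5 chip (8000 RU) captured each mouse IgG1 (1.5 μg/mL) to around 150 RU. Galectin-10-His was then injected as a 1:2 serial dilution from 5 μg/mL in HBS-EP pH7.4. After blank subtraction, kd/KD and Rmax came from a simultaneous ka/kd fit with mass transfer and local Rmax.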

[6] = target: T2, TEV-cleaved wild-type recombinant human …; test: cell-based or functional assay; remark: listed apart in the source
[7] = target: T3, cynomolgus galectin-10-His, YRT isoform (cynomolgus); test: ELISA, mouse IgG1 on coated cynoGal10-His_YRT (0.5 ug/mL)
T3 construct: not shown: His tag
T3 chain: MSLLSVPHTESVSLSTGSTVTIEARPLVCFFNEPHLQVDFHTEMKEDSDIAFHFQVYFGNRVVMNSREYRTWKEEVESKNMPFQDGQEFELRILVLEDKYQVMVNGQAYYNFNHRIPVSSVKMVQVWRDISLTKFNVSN
Experimental: In a similar setup to that used during the characterization of the scFv-human Fc molecules, the relative binding properties of the 7 mouse IgG1 antibodies were analyzed by ELISA. A Maxisorp plate was coated overnight with 0.5 μg/mL of human or cynomolgus WGS or YRT isoform of galectin-10-His. Then a serial dilution of each clone (from 100 nM, dilution 1/4, 12 points of dilutions) was incubated on coated galectin-10. After several washing steps, detection of the bound mouse IgG1 was carried out with an anti-mouse Fc-HRP antibody (DAMPO, Jackson ImmunoResearch, Catalog 715-035-150). Absorbance was measured at 450 nm (reference at 620 nm) with Tecan instrument. The raw data (OD values) were plotted on GraphPad Prism 7.01. The EC50 values for each antibody, calculated with a non-linear regression (log(agonist) vs. response Variable slope (four parameters)), are shown in the table below. Antibody 1D11 from the previous panel was included for comparison.

[8] = target: T1, human galectin-10-His (recombinant …); test: Biacore capture approach (summary table), mouse IgG1
Experimental: The binding capacity of the mouse IgG1 antibodies to galectin-10 was analyzed on Biacore T3000. For this purpose, a capture approach was set up. A CM5 Chip was coated with polyclonal anti-mouse Fc at 8000 RU, then a fixed concentration of the mouse IgG1 antibody panel (1.5 μg/mL), diluted in HBS-EP pH7.4, was captured to reach a binding signal around 150 RU. Finally, a serial dilution of galectin-10-His (serial dilution, 1 over 2 from 5 μg/mL) diluted in HBS-EP pH7.4 was injected. Raw data were analyzed via BIA evaluation software with a blank subtraction (4-3). The kd/KD and Rmax of each mAb to galectin-10-His was determined using the Fit Kinetics simultaneous ka/kd/Binding with mass transfer/Local Rmax on BIA evaluation software.

- binding signal (nm) [1]: 0.06 nm
- binding signal (nm) [2]: 1.18 nm
- binding signal (nm) [3]: 0.01 nm
- dissolution of in vitro grown Gal10 crystals (spinning disk confocal microscopy) [4]: ≤ 90 min
- Kd [5]: 1 nM
- koff [5]: 0.00529 s⁻¹
- 100% Solubilization of CLC (Conc uM) [6]: 7.86 µM
- binding result [7]: no binding
- Kd [8]: 1 nM
- koff [8]: 0.00529 s⁻¹
B1: 1D11 mouse IgG1 (antibody, V domains shown)
VH: QVQLVESGGGLVQPGGSLRLSCAASGFTFDDYAMSWVRQAPGKGLEWVSGISWNGGSTYYAESMKGRFTISRDNAKNTLYLQMNSLKSEDTAVYYCAKDRNLGYRLGYPYDYWGQGTQVTVSS
VL: QSVLTQPPSVSGSPGETVTISCAGTSSDVGYGNYVSWYQQLPGMAPRLLIYEVNKRASGITDRFSGSKSGNTASLTISGLQSEDEGDYYCASYRSSNNAVFGGGTHLTVL
notes: VH on mouse IgG1 heavy chain constant domains (CH1-CH2-CH3), VL on mouse lambda light chain constant domain; also called 1D011; 1D11 mIgG1
